Reference: IntAct's records for PubMed 18927509

B1: Cell cycle serine/threonine-protein kinase CDC5/MSD2 (Saccharomyces cerevisiae), P32562 (parent)
chain: MSLGPLKAINDKQLNTRSKLVHTPIKGNTADLVGKENHFKQTKRLDPNNDHHHQPAQKKKREKLSALCKTPPSLIKTRGKDYHRGHFLGEGGFARCFQIKDDSGEIFAAKTVAKASIKSEKTRKKLLSEIQIHKSMSHPNIVQFIDCFEDDSNVYILLEICPNGSLMELLKRRKVLTEPEVRFFTTQICGAIKYMHSRRVIHRDLKLGNIFFDSNYNLKIGDFGLAAVLANESERKYTICGTPNYIAPEVLMGKHSGHSFEVDIWSLGVMLYALLIGKPPFQARDVNTIYERIKCRDFSFPRDKPISDEGKILIRDILSLDPIERPSLTEIMDYVWFRGTFPPSIPSTVMSEAPNFEDIPEEQSLVNFKDCMEKSLLLESMSSDKIQRQKRDYISSIKSSIDKLEEYHQNRPFLPHSLSPGGTKQKYKEVVDIEAQRRLNDLAREARIRRAQQAVLRKELIATSTNVIKSEISLRILASECHLTLNGIVEAEAQYKMGGLPKSRLPKIKHPMIVTKWVDYSNKHGFSYQLSTEDIGVLFNNGTTVLRLADAEEFWYISYDDREGWVASHYLLSEKPRELSRHLEVVDFFAKYMKANLSRVSTFGREEYHKDDVFLRRYTRYKPFVMFELSDGTFQFNFKDHHKMAISDGGKLVTYISPSHESTTYPLVEVLKYGEIPGYPESNFREKLTLIKEGLKQKSTIVTVD
partner: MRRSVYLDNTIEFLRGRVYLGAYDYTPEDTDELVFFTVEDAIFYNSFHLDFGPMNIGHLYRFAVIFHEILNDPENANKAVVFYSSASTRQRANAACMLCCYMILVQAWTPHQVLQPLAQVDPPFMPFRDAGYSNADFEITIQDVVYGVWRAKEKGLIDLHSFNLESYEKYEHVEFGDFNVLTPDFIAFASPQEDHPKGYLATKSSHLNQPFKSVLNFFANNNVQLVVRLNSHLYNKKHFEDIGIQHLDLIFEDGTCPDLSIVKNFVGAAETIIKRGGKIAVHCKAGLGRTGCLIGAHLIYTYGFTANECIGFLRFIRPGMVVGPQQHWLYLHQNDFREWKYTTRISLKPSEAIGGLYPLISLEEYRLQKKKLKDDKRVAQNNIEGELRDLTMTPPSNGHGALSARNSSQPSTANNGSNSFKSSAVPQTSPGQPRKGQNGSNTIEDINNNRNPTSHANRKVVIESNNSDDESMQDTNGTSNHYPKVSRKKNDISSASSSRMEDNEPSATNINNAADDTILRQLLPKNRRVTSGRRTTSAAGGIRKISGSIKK

Variants of: B1
Conditions: with cdc14_yeast CDC14, Q00684

effect of a mutation on the interaction | Variant
decreasing interaction | H641A;K643M
